Test results from PMC3659094.

Target: human Tyrosine kinase receptor B (TrkB) (human) (UniProt Q16620)
Chain of UniProt Q16620 (Q16620 other isoform, or with tags, fused parts or gaps): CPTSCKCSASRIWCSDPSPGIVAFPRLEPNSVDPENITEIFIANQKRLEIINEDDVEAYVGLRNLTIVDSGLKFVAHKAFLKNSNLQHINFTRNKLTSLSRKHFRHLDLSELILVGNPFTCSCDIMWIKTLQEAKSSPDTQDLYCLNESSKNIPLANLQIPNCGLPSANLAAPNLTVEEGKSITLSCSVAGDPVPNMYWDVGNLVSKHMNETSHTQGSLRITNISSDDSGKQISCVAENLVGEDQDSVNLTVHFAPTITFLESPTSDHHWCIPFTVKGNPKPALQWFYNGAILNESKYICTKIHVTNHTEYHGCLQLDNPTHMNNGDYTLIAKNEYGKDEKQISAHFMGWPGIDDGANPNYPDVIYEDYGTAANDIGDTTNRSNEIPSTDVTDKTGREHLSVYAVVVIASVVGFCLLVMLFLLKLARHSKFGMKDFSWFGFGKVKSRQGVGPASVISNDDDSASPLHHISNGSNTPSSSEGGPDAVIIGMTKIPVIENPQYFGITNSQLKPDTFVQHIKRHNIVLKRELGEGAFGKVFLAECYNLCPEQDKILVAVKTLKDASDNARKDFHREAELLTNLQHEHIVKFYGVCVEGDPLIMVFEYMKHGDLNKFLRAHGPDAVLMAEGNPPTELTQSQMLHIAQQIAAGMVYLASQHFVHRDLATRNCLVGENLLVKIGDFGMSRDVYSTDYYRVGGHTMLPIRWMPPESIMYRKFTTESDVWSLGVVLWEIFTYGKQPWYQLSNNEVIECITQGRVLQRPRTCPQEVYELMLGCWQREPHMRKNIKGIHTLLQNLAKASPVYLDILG

- EC50 of recruitment of SHC1 to human TrkB in U2OS cells (Pathhunter): 1 nM
- EC50 of transcriptional activation of a CRE-luciferase reporter in HEK293 cells expressing human TrkB: 5.2 nM
Substance: brain-derived neurotrophic factor (BDNF) (ligand)
